In this experiment the target is FCγ receptor II (CD32), endogenous on K562 and U937 cells (human (endogenous in K562 and U937)) (UniProt P12318).

The results in this text go back to PMC10875981.

Chain of UniProt P12318 (P12318 34-317): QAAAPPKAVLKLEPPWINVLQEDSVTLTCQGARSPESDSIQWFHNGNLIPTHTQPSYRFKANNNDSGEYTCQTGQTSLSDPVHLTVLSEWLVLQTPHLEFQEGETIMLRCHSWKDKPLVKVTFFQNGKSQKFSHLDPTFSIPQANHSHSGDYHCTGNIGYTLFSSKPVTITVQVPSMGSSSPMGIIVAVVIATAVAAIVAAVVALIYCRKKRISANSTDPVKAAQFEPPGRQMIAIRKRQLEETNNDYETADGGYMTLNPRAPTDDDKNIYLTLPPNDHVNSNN

As to “anti-Vα24Jα18 TCR mAb (6B11 mAb) (antibody)”, the CD107a^+ iNKT cells (treated with 6B11 mAb 50 ng/mL overnight, washed) after coculture with K562 cells, E/T 2:1, in the presence of the blocking anti-CD32 mAb (10 µg/mL) was 1.8%; the CD107a^+ iNKT cells (treated with 6B11 mAb 50 ng/mL overnight, washed) after coculture with K562 cells, E/T 2:1, with isotype mIgG1 (10 µg/mL) stood at 52.8%; the CD107a^+ iNKT cells (treated with 6B11 mAb 50 ng/mL overnight, washed) after coculture with U937 cells, E/T 2:1, in the presence of the anti-CD32 mAb came out at 15.6%; the CD107a^+ iNKT cells (treated with 6B11 mAb 50 ng/mL overnight, washed) after coculture with U937 cells, E/T 2:1, with mIgG1 as a control stood at 38.3%.
